Substitutions are numbered along the chain they refer to. In names and notes the source's numbering stands.
B1: Cdc6 (natural protein)
chain: MSAIPITPTKRIRRNLFDDAPATPPRPLKRKKLQFTDVTPESSPEKLQFGSQSIFLRTKALLQKSSELVNLNSSDGALPARTAEYEQVMNFLAKAISEHRSDSLYITGPPGTGKTAQLDMIIRQKFQSLPLSLSTPRSKDVLRHTNPNLQNLSWFELPDGRLESVAVTSINCISLGEPSSIFQKIFDSFQDLNGPTLQIKNMQHLQKFLEPYHKKTTFVVVLDEMDRLLHANTSETQSVRTILELFLLAKLPTVSFVLIGMANSLDMKDRFLSRLNLDRGLLPQTIVFQPYTAEQMYEIVIQKMSSLPTIIFQPMAIKFAAKKCAGNTGDLRKLFDVLRGSIEIYELEKRFLLSPTRGSLNSAQVPLTPTTSPVKKSYPEPQGKIGLNYIAKVFSKFVNNNSTRTRIAKLNIQQKLILCTIIQSLKLNSDATIDESFDHYIKAITKTDTLAPLQRNEFLEICTILETCGLVSIKKTKCKGKTKRFVDKIDVDLDMREFYDEMTKISILKPFLH
B2: Cdc6 N263A (sensor-1 mutant) (natural protein)
chain: B1 chain with N263A
B3: Cdt1 (natural protein)
chain: MSGTANSRRKEVLRVPVIDLNRVSDEEQLLPVVRAILLQHDTFLLKNYANKAVLDALLAGLTTKDLPDTSQGFDANFTGTLPLEDDVWLEQYIFDTDPQLRFDRKCRNESLCSIYSRLFKLGLFFAQLCVKSVVSSAELQDCISTSHYATKLTRYFNDNGSTHDGADAGATVLPTGDDFQYLFERDYVTFLPTGVLTIFPCAKAIRYKPSTMATTDNSWVSIDEPDCLLFHTGTLLARWSQGMHTTSPLQIDPRANIVSLTIWPPLTTPISSKGEGTIANHLLEQQIKAFPKVAQQYYPRELSILRLQDAMKFVKELFTVCETVLSLNALSRSTGVPPELHVLLPQISSMMKRKIVQDDILKLLTIWSDAYVVELNSRGELTMNLPKRDNLTTLTNKSRTLAFVERAESWYQQVIASKDEIMTDVPAFKINKRRSSSNSKTVLSSKVQTKSSNANALNNSRYLANSKENFMYKEKMPDSQANLMDRLRERERRSAALLSQRQKRYQQFLAMKMTQVFDILFSLTRGQPYTETYLSSLIVDSLQDSNNPIGTKEASEILAGLQGILPMDISVHQVDGGLKVYRWNSLDKNRFSKLLQIHKSKQQD

Target: origin recognition complex (ORC) (S. cerevisiae, UniProt P54784;P32833;P54790;P54791;P50874;P38826)
Assay: in vitro pre-RC assembly assay on origin DNA beads

Row | Binder | binding result
1 | B1 | binds
2 | B2 | binds
3 | B3 | binds
